According to the supplement of paper PMC11246515:
± gives the standard deviation of the averaged measurements.

Test: total protein half-life in vivo (active degradation + dilution); higher = more stable protein
[1] = E. coli NCM3722 delta-clpP delta-lon delta-hslV, growth: N-lim chemostat, doubling time 6 h
[2] = E. coli NCM3722 delta-hslV, growth: N-lim chemostat, doubling time 6 h
[3] = E. coli NCM3722 delta-smpB, growth: N-lim chemostat, doubling time 6 h
[4] = wild type E. coli NCM3722, growth: C-lim chemostat, doubling time 3 h
[5] = wild type E. coli NCM3722, growth: C-lim chemostat, doubling time 6 h
[6] = wild type E. coli NCM3722, growth: C-lim chemostat, doubling time 12 h
[7] = wild type E. coli NCM3722, growth: N-lim chemostat, doubling time 6 h
[8] = wild type E. coli NCM3722, growth: P-lim chemostat, doubling time 6 h
[9] = wild type E. coli NCM3722, growth: P-lim chemostat, doubling time 12 h
[10] = E. coli NCM3722 delta-clpP, growth: N-lim chemostat, doubling time 6 h
[11] = E. coli NCM3722 delta-lon, growth: N-lim chemostat, doubling time 6 h
[12] = wild type E. coli NCM3722, growth: N-lim chemostat, doubling time 12 h

Sequence	total protein half-life in vivo [1]	total protein half-life in vivo [2]	total protein half-life in vivo [3]	total protein half-life in vivo [4]	total protein half-life in vivo [5]	total protein half-life in vivo [6]	total protein half-life in vivo [7]	total protein half-life in vivo [8]	total protein half-life in vivo [9]	total protein half-life in vivo [10]	total protein half-life in vivo [11]	total protein half-life in vivo [12]
MSIKTSNTDFKTRIRQQIEDPIMRKAVANAQQRIGANRQKMVDELGHWEEWRDRAAQIRDHVLSNLDAYLYQLSEKVTQNGGHVYFARTKEDATRYILQVAQRKNARKVVKSKSMVTEEIGVNHVLQDAGIQVIETDLGEYILQLDQDPPSHVVVPAIHKDRHQIRRVLHERLGYEGPETPEAMTLFIRQKIREDFLSAEIGITGCNFAVAETGSVCLVTNEGNARMCTTLPKTHIAVMGMERIAPTFAEVDVLITMLARSAVGARLTGYNTWLTGPREAGHVDGPEEFHLVIVDNGRSEVLASEFRDVLRCIRCGACMNTCPAYRHIGGHGYGSIYPGPIGAVISPLLGGYKDFKDLPYACSLCTACDNVCPVRIPLSKLILRHRRVMAEKGITAKAEQRAIKMFAYANSHPGLWKVGMMAGAHAASWFINGGKTPLKFGAISDWMEARDLPEADGESFRSWFKKHQAQEKKNG	5.21 ± 0.71 h	3.96 ± 3.1 h	1.76 ± 0.072 h	1.83 ± 0.084 h	3.47 ± 0.48 h	4.06 ± 0.2 h	1.72 h	1.89 h	3.14 ± 0.62 h	–	–	–
MLKFILRRCLEAIPTLFILITISFFMMRLAPGSPFTGERTLPPEVMANIEAKYHLNDPIMTQYFSYLKQLAHGDFGPSFKYKDYSVNDLVASSFPVSAKLGAAAFFLAVILGVSAGVIAALKQNTKWDYTVMGLAMTGVVIPSFVVAPLLVMIFAIILHWLPGGGWNGGALKFMILPMVALSLAYIASIARITRGSMIEVLHSNFIRTARAKGLPMRRIILRHALKPALLPVLSYMGPAFVGIITGSMVIETIYGLPGIGQLFVNGALNRDYSLVLSLTILVGALTILFNAIVDVLYAVIDPKIRY [P0AFH2]	6.19 ± 0.36 h	6.31 ± 0.27 h	5.88 ± 0.32 h	2.81 ± 0.28 h	5.75 ± 0.39 h	13.4 ± 3.6 h	4.92 ± 1.4 h	5.69 ± 1.4 h	9.81 ± 1.4 h	6.06 ± 0.43 h	4.86 ± 1.2 h	13.5 h
MEKNNEVIQTHPLVGWDISTVDSYDALMLRLHYQTPNKSEQEGTEVGQTLWLTTDVARQFISILEAGIAKIESGDFQVNEYRRH [P0AB33]	4.09 h	–	–	–	–	–	–	–	–	–	–	–
MSEMIYGIHAVQALLERAPERFQEVFILKGREDKRLLPLIHALESQGVVIQLANRQYLDEKSDGAVHQGIIARVKPGRQYQENDLPDLIASLDQPFLLILDGVTDPHNLGACLRSADAAGVHAVIVPKDRSAQLNATAKKVACGAAESVPLIRVTNLARTMRMLQEENIWIVGTAGEADHTLYQSKMTGRLALVMGAEGEGMRRLTREHCDELISIPMAGSVSSLNVSVATGICLFEAVRQRS	5.18 ± 0.29 h	5.39 ± 0.28 h	4.69 ± 0.23 h	2.73 ± 0.46 h	5.83 ± 0.66 h	10.3 ± 0.25 h	5.17 ± 0.15 h	5.37 ± 0.4 h	11.5 ± 0.28 h	4.81 ± 0.49 h	5.55 ± 0.52 h	9.48 ± 0.31 h
MPTSHENALQQRCQQIVTSPVLSPEQKRHFLALEAENNLPYPQLPAEARRALDEGVICDMFEGHAPYKPRYVLPDYARFLANGSEWLELEGAKDLDDALSLLTILYHHVPSVTSMPVYLGQLDALLQPYVRILTQDEIDVRIKRFWRYLDRTLPDAFMHANIGPSDSPITRAILRADAELKQVSPNLTFIYDPEITPDDLLLEVAKNICECSKPHIANGPVHDKIFTKGGYGIVSCYNSLPLAGGGSTLVRLNLKAIAERSESLDDFFTRTLPHYCQQQIAIIDARCEFLYQQSHFFENSFLVKEGLINPERFVPMFGMYGLAEAVNLLCEKEGIAARYGKEAAANEVGYRISAQLAEFVANTPVKYGWQKRAMLHAQSGISSDIGTTPGARLPYGDEPDPITHLQTVAPHHAYYYSGISDILTLDETIKRNPQALVQLCLGAFKAGMREFTANVSGNDLVRVTGYMVRLSDLEKYRAEGSRTNTTWLGEEAARNTRILERQPRVISHEQQMRFSQ	4.57 h	–	–	2.7 h	3.94 h	6.17 h	–	3.51 h	5.66 h	–	3.47 h	–
MKWFNTLSHNRWLEQETDRIFDFGKNSVVPTGFGWLGNKGQIKEEMGTHLWITARMLHVYSVAAAMGRPGAYSLVDHGIKAMNGALRDKKYGGWYACVNDEGVVDASKQGYQHFFALLGAASAVTTGHPEARKLLDYTIEIIEKYFWSEEEQMCLESWDEAFSKTEEYRGGNANMHAVEAFLIVYDVTHDKKWLDRAIRVASVIIHDVARNNHYRVNEHFDTQWNPLPDYNKDNPAHRFRAFGGTPGHWIEWGRLMLHIHAALEARCEQPPAWLLEDAKGLFNATVRDAWAPDGADGIVYTVDWEGKPVVRERVRWPIVEAMGTAYALYTVTGDRQYETWYQTWWEYCIKYLMDYENGSWWQELDADNKVTTKVWDGKQDIYHLLHCLVIPRIPLAPGMAPAVAAGLLDINAK	7.17 h	–	–	–	4.37 h	5.87 h	–	–	–	–	–	–
MVSKPFQRPFSLATRLTFFISLATIAAFFAFAWIMIHSVKVHFAEQDINDLKEISATLERVLNHPDETQARRLMTLEDIVSGYSNVLISLADSQGKTVYHSPGAPDIREFTRDAIPDKDAQGGEVYLLSGPTMMMPGHGHGHMEHSNWRMINLPVGPLVDGKPIYTLYIALSIDFHLHYINDLMNKLIMTASVISILIVFIVLLAVHKGHAPIRSVSRQIQNITSKDLDVRLDPQTVPIELEQLVLSFNHMIERIEDVFTRQSNFSADIAHEIRTPITNLITQTEIALSQSRSQKELEDVLYSNLEELTRMAKMVSDMLFLAQADNNQLIPEKKMLNLADEVGKVFDFFEALAEDRGVELRFVGDKCQVAGDPLMLRRALSNLLSNALRYTPTGETIVVRCQTVDHLVQVIVENPGTPIAPEHLPRLFDRFYRVDPSRQRKGEGSGIGLAIVKSIVVAHKGTVAVTSDARGTRFVITLPA	6.87 ± 0.17 h	5.99 ± 1.1 h	5.79 ± 0.62 h	3.52 ± 0.32 h	6.15 ± 0.53 h	12.5 ± 1.1 h	5.98 ± 0.11 h	6.28 ± 0.53 h	12.6 ± 0.38 h	6.49 ± 0.093 h	5.94 ± 0.29 h	11.78 ± 0.088 h
